From publication PMC8939769, “The SARS-CoV-2 monoclonal antibody combination, AZD7442, is protective in non-human primates and has an extended half-life in humans” (Science Translational Medicine, 2022)

Tests used:
[1] = molecular target: T1, SARS-CoV-2 S trimer (S2P ectodomain protein) (SARS-CoV-2, ancestral (Wuhan-Hu-1 …, UniProt P0DTC2, stabilised)); assay: cell-based or functional assay
[2] = molecular target: T1, SARS-CoV-2 S trimer (S2P ectodomain …); assay: not stated; binding kinetics (ka, kd, KD) on the SARS-CoV-2 S trimer (S2P ectodomain protein); representative of at least two independent assays; assay details in the Supplementary materials; details: both partners purified

B1: AZD8895 (tixagevimab) (antibody, V domains shown)
VH: QMQLVQSGPEVKKPGTSVKVSCKASGFTFMSSAVQWVRQARGQRLEWIGWIVIGSGNTNYAQKFQERVTITRDMSTSTAYMELSSLRSEDTAVYYCAAPYCSSISCNDGFDIWGQGTMVTVSS
VL: not shown
[1]
  neutralization of the USA-WA1/2020 strain of SARS-CoV-2 in vitro, IC50: 9 ng/mL
[2]
  Kd: 2.8 pM
